Experimental data reported in patent US20150216998A1, “ENDO180-TARGETED PARTICLES FOR SELECTIVE DELIVERY OF THERAPEUTIC AND DIAGNOSTIC AGENTS” (QBI ENTERPRISES LTD., priority 2012, published 2015).

Key:
[1] = tested on: ENDO180 expressing cell lines; test: FACS binding capacity screening, all tested ENDO180 expressing cell lines; type: cell-based
Protocol: For binding analysis, 3.5×10^5 cells were trypsinized, spun down, re-suspended with FACS buffer (1% fetal bovine serum in 1×PBS), incubated for 30 minutes on ice with anti ENDO180 mAbs (1 μg) and washed with 1 ml FACS buffer. mAb samples were incubated with a secondary FITC conjugated goat anti mouse IgG antibody (115-095-072) (1:100, 150 μg/ml) in 50 μl of FACS buffer 30 minutes on ice, resuspended in 1 ml FACS buffer and analyzed using a FACS Calibur flow cytometer.
Cell lines which express different ENDO180 receptor levels were tested: NRK+ (a normal rat kidney), DU145^+ (a human prostate adenocarcinoma), LLC^+ (a mouse Lewis lung carcinoma), DU145^− and LLC^− (control cell lines, which are low expressors of ENDO180 receptor levels, i.e. express the PIRES Puro empty plasmid), A549 (human lung carcinoma) and CT26 (mouse colon carcinoma). NRK+, DU145^+ and LLC^+ stably express ENDO180 receptor levels. A549 and CT26 express naturally unknown levels of ENDO180 receptor. The binding capacity of the above cell lines was compared using 4 different Abs: mAb 8D8 clone, mAb10C12 clone, minibody (MB) and anti-wnt minibody (negative control).
A new batch was tested and the secondary Ab was changed (FITC conjugated goat anti mouse IgG F(ab)2 fragment, 115-095-072, Jackson Immunoresearch). The new MB batch was labeled directly with protein labeling kit.

tested cell lines = test: Internalization of anti-ENDO180 antibodies into the tested cell lines (confocal microscopy); type: cell-based; details: unconjugated Abs followed by secondary FITC goat anti mouse Ab
Protocol: Internalization assays were performed in 24 well plates. 1×10^5 A549 or NRK-ENDO180 or NRK naive cells were seeded on cover slips in RPMI or DMEM medium respectively, supplemented with antibiotics, L-Glutamine and 10% fetal calf serum (Biological Industries, Beit Haemek, Israel).
For membrane staining, cells were stained with CellTracker™ DilC18 (5)-DS solution (Invitrogen, Carlsbad, Calif., USA), diluted 1:5000 with PBS. For cell membrane labeling, Concanavalin A, Alexa fluor 647 conjugate (10 μg/ml) (C21421, Invitrogen) was used. For nuclei staining, cells were stained with Hoechst (1:10,000 in PBS) (33258, Sigma). […] Subsequently, the cells were washed twice using cold PBS, fixated with 4% paraformaldehyde (PFA) and washed again with cold PBS. Membrane and nuclei staining were performed after fixation.
The cells were mounted using fluorescent mounting medium (Golden Bridge international, Mukilteo, Wash., USA) and fluorescence was measured using Andor Spinning disc confocal microscope and the Meta 510 Zeiss LSM confocal microscope. Laser beams at 405, 488, 561 and 650 nm were used for UV, Rhodamine, Concavaline A and CellTracker™, fluorophores excitation respectively. Serial optical sections of the cells were recorded for each treatment and the images were processed using Zeiss LSM Image browser software. […]

B1: MB: anti-ENDO180 scFv clone G7V, SEQ ID NO:6, also known as minibody (protein)
scFv: MKYLLPTAAAGLLLLAASGAHAQVQLVQSGGGLVKPGGSLRLSCAASGFTFSSYSMNWVRQAPGKGLEWVANIKPDGSERHSVDSVKGRFTISRDNSKNSLYLQMNSLRAEDTAVYYCARPGAGRLDYWGQGTLVTVSSGGGGSGGGGSGGGGSNFMLTQDAAVSVALGQTVRITCQGDSLRSYYASWYQQKPGQAPVLVVYGKNNRPSGIPDRFSGSSSGNTASLTITGAQAEDEADYYCNSRDSSGNPWAFGGGTKVTVLASGKPIPNPLLGLDSTHHHHHH
modifications: Polypeptide encoded by SEQ ID NO:5
In the case of B1, the binding capacity ([1]; all of the tested cell lines, first batch, secondary FITC Ab) is reported as “weak binding capacity”, the binding capacity ([1]; new batch, labeled directly with protein labeling kit, FIGS. 4A-D) is reported as “No significant improvement in binding capacity” and the internalization (tested cell lines) is reported as “no internalization”.
